Measurements: the supplement of paper PMC9112550, “Optimization of the antimicrobial peptide Bac7 by deep mutational scanning” (BMC Biology, 2022)

Test system: Escherichia coli TOP10
Experiment: shrunken log2 fold change of peptide-encoding DNA abundance (4.5 h post-induction vs induction); higher = less antimicrobial activity (less host growth inhibition)
Settings: time post-induction: 4.5 h; library: site-saturation at positions 5, 18, 19, 20
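Further: peptides expressed intracellularly from a pBAD plasmid library in pooled LB shake-flask culture, induced with 0.3% L-arabinose, DNA abundance read by NGS, three biological replicates, DESeq2 with apeglm shrinkage.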

Sequence	shrunken log2 fold change
RRIRFRPPRLPRPRPRPNIMPRP	-0.658
RRIRPRPPRLPRPRPRPLVYPRP	-0.0742
RRIRHRPPRLPRPRPRPNHNPRP	-0.954
RRIRDRPPRLPRPRPRPGRDPRP	0.193
RRIRMRPPRLPRPRPRPTMPPRP	0.174
RRIRSRPPRLPRPRPRPNLKPRP	0.087
RRIRTRPPRLPRPRPRPPGQPRP	0.622
RRIRFRPPRLPRPRPRPFCKPRP	-0.374
RRIRKRPPRLPRPRPRPRLNPRP	0.489
RRIRLRPPRLPRPRPRPRHWPRP	0.679
RRIRCRPPRLPRPRPRPAGWPRP	0.719
RRIRDRPPRLPRPRPRPHEEPRP	0.175
RRIRHRPPRLPRPRPRPHDYPRP	-0.0577
RRIRARPPRLPRPRPRPSQNPRP	-0.25
RRIRDRPPRLPRPRPRPNEGPRP	-0.000567
RRIRLRPPRLPRPRPRPDSMPRP	-0.166
RRIRVRPPRLPRPRPRPEYYPRP	0.0358
RRIRKRPPRLPRPRPRPQAIPRP	-0.0244
RRIRKRPPRLPRPRPRPSTFPRP	-0.00863
RRIRARPPRLPRPRPRPSTWPRP	-0.0645
RRIRMRPPRLPRPRPRPRSRPRP	0.997
RRIRPRPPRLPRPRPRPRCAPRP	1.73

Sequence	shrunken log2 fold change
RRIRQRPPRLPRPRPRPMKLPRP	0.00355
RRIRFRPPRLPRPRPRPYLHPRP	-0.454
RRIRVRPPRLPRPRPRPMHEPRP	-0.044
RRIRLRPPRLPRPRPRPGCQPRP	-0.00705
RRIRQRPPRLPRPRPRPPNIPRP	-0.3
RRIRGRPPRLPRPRPRPQKGPRP	0.0565
RRIRFRPPRLPRPRPRPGTRPRP	0.208
RRIRLRPPRLPRPRPRPWAWPRP	-0.0255
RRIRTRPPRLPRPRPRPEVGPRP	0.0668
RRIRDRPPRLPRPRPRPFLCPRP	0.0956
RRIRGRPPRLPRPRPRPGLDPRP	1.24
RRIRLRPPRLPRPRPRPEIMPRP	-0.00809
RRIRKRPPRLPRPRPRPDHRPRP	0.139
RRIRGRPPRLPRPRPRPGFCPRP	0.925
RRIRRRPPRLPRPRPRPGEWPRP	0.701
RRIRERPPRLPRPRPRPYRIPRP	-0.0789
RRIRNRPPRLPRPRPRPIFNPRP	-0.302
RRIRCRPPRLPRPRPRPCEDPRP	-0.219
RRIRRRPPRLPRPRPRPGGNPRP	0.475
RRIRMRPPRLPRPRPRPYPGPRP	0.0814
RRIRYRPPRLPRPRPRPNMHPRP	-0.934
RRIRTRPPRLPRPRPRPGDFPRP	-0.093

Sequence	shrunken log2 fold change
RRIRRRPPRLPRPRPRPSWHPRP	-0.0466
RRIRNRPPRLPRPRPRPNGGPRP	0.153
RRIRPRPPRLPRPRPRPWHRPRP	-0.156
RRIRHRPPRLPRPRPRPAWLPRP	0.163
RRIRHRPPRLPRPRPRPFGNPRP	-0.119
RRIRFRPPRLPRPRPRPLQPPRP	0.104
RRIRMRPPRLPRPRPRPLGGPRP	0.548
RRIRDRPPRLPRPRPRPQPAPRP	0.559
RRIRIRPPRLPRPRPRPMYTPRP	-0.244
RRIRGRPPRLPRPRPRPPSWPRP	1.24
RRIRARPPRLPRPRPRPAPMPRP	0.799
RRIRYRPPRLPRPRPRPRAHPRP	-0.121
RRIRIRPPRLPRPRPRPIVSPRP	-0.102
RRIRHRPPRLPRPRPRPARGPRP	0.319
RRIRDRPPRLPRPRPRPLCDPRP	0.287
RRIRCRPPRLPRPRPRPCFKPRP	-0.603
RRIRGRPPRLPRPRPRPTPCPRP	0.662
RRIRGRPPRLPRPRPRPAMSPRP	0.508
RRIRVRPPRLPRPRPRPHKQPRP	0.0253
RRIRYRPPRLPRPRPRPQRRPRP	-0.261
RRIRGRPPRLPRPRPRPNMVPRP	-0.00462
RRIRSRPPRLPRPRPRPHQQPRP	-0.0386

Sequence	shrunken log2 fold change
RRIRPRPPRLPRPRPRPVYIPRP	-0.684
RRIRIRPPRLPRPRPRPDCPPRP	0.132
RRIRWRPPRLPRPRPRPVSHPRP	-0.0115
RRIRFRPPRLPRPRPRPFWQPRP	-0.321
RRIRIRPPRLPRPRPRPAMQPRP	0.0843
RRIRVRPPRLPRPRPRPLYAPRP	-0.154
RRIRARPPRLPRPRPRPPGDPRP	0.868
RRIRQRPPRLPRPRPRPSLDPRP	-0.222
RRIRYRPPRLPRPRPRPPMYPRP	-1.28
RRIRQRPPRLPRPRPRPVDGPRP	-0.13
RRIRERPPRLPRPRPRPRSWPRP	0.0987
RRIRGRPPRLPRPRPRPWCSPRP	-0.0965
RRIRARPPRLPRPRPRPQCKPRP	-0.077
RRIRCRPPRLPRPRPRPQQEPRP	-0.051
RRIRYRPPRLPRPRPRPFYVPRP	-0.602
RRIRIRPPRLPRPRPRPPTPPRP	0.238
RRIRVRPPRLPRPRPRPTFEPRP	-0.106
RRIRERPPRLPRPRPRPKANPRP	0.0174
RRIRCRPPRLPRPRPRPKIRPRP	0.0994
RRIRQRPPRLPRPRPRPKGEPRP	-0.031
RRIRPRPPRLPRPRPRPRLEPRP	0.197
RRIRCRPPRLPRPRPRPISSPRP	-0.0694

Sequence	shrunken log2 fold change
RRIRRRPPRLPRPRPRPFAEPRP	0.61
RRIRERPPRLPRPRPRPIKDPRP	-0.168
RRIRNRPPRLPRPRPRPHAKPRP	-0.0658
RRIRGRPPRLPRPRPRPNDMPRP	-0.0212
RRIRYRPPRLPRPRPRPNFQPRP	-0.578
RRIRVRPPRLPRPRPRPTVGPRP	0.553
RRIRCRPPRLPRPRPRPDFWPRP	0.0753
RRIRFRPPRLPRPRPRPNQDPRP	-0.361
RRIRARPPRLPRPRPRPWRYPRP	-0.163
RRIRYRPPRLPRPRPRPFFTPRP	-0.675
RRIRIRPPRLPRPRPRPSPDPRP	0.127
RRIRYRPPRLPRPRPRPDLAPRP	-0.344
RRIRNRPPRLPRPRPRPLQTPRP	-0.0644
RRIRFRPPRLPRPRPRPYDRPRP	-0.0252
RRIRHRPPRLPRPRPRPIPPPRP	-0.0356
RRIRFRPPRLPRPRPRPPMYPRP	-0.395
RRIRCRPPRLPRPRPRPTWEPRP	-0.0631
RRIRYRPPRLPRPRPRPTYCPRP	-0.165
RRIRDRPPRLPRPRPRPPGEPRP	-0.0136
RRIRIRPPRLPRPRPRPPAWPRP	0.146
RRIRLRPPRLPRPRPRPWRFPRP	0.271
